Measured values published in IntAct's records for PubMed 21422170.

B1: Natural cytotoxicity triggering receptor 3 (Homo sapiens), O14931 (parent)
chain: MAWMLLLILIMVHPGSCALWVSQPPEIRTLEGSSAFLPCSFNASQGRLAIGSVTWFRDEVVPGKEVRNGTPEFRGRLAPLASSRFLHDHQAELHIRDVRGHDASIYVCRVEVLGLGVGTGNGTRLVVEKEHPQLGAGTVLLLRAGFYAVSFLSVAVGSTVYYQGKCLTWKGPRRQLPAVVPAPLPPPCGSSAHLLPPVPGG
partner: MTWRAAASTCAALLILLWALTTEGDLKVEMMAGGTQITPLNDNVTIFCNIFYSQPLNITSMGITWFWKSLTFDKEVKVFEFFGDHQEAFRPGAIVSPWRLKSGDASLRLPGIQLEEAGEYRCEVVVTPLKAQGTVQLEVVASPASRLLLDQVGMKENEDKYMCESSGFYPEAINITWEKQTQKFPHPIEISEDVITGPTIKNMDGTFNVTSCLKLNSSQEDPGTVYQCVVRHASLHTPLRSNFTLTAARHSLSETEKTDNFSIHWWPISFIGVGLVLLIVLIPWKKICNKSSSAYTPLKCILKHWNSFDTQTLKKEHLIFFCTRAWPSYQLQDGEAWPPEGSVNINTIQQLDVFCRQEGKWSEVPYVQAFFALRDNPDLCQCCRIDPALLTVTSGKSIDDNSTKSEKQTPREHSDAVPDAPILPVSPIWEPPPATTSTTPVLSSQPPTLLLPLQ

Variants of: B1
Details: with nr3l1_human NCR3LG1, Q68D85

Row | Variant | effect of a mutation on the interaction
1 | F85A;L86A | decreasing interaction strength
2 | I50A;S52A | decreasing interaction strength
3 | S52R | disrupting interaction strength
